Positions count from the first letter of the chain named.

Consider two molecules from US20210070847A1 (UNIVERSITY OF FLORIDA RESEARCH FOUNDATION, published 2021).

Experiment [1] concerns the target T1, recombinant full-length human 2N/3R tau (human, UniProt P10636 2-758).
T1 construct: Expressed in E. coli from pRK172 and purified; also called 3-repeat tau
Briefly: immunoblot of recombinant tau proteins. On the technique in general: In western blotting, separated proteins are transferred to a membrane and probed.

Experiment [2] concerns the target T2, recombinant full-length human 2N/4R tau (human, UniProt P10636 2-758).
T2 construct: Expressed in E. coli from pRK172 and purified; also called 4-repeat tau
In words: immunoblot of recombinant tau proteins.

Experiment [3] has as its target T3, human 1N4R tau with the P301S mutation (expressed in PS19 tau transgenic mice) (human, UniProt P10636 1-758).
T3 construct: Tested in total brain lysates (immunoblot) and spinal cord sections (immunohistochemistry) of PS19 mice; also called human tau in PS19 mice; over-expressed 1N4R human tau in PS19 brain
In words: immunoblot of total mouse brain lysates. As for the experimental part:
Preparation of total mouse brain protein lysates Tau KO, PS19 Tg or NTg mice were euthanized by CO₂ inhalation and the brains were harvested. Brain tissue was homogenized in 2% SDS/50 mM Tris, pH 7.5 using a probe sonicator and then incubated for 10 min at 100° C. Protein concentrations were determined by BCA assay using BSA as the standard. Sample buffer was added and equal amounts of protein (10 μg) were resolved by SDS-PAGE and analyzed by immunoblot.
To assess the selectivity of these antibodies for human tau, immunoblots of total mouse brain lysates from tau KO, NTg and PS19 tau Tg mice were probed with these antibodies (FIG. 3). All of these antibodies detected human tau in whole brain lysates from PS19 mice. Antibodies 81A11, 83E4 and 94-3A2-2 reacted weakly with endogenous tau in NTg mice. […] All the antibodies were specific for tau as shown using the lysates from tau KO mice. A non-specific band at approximately 30 kDa present in all the lysates was attributed to non-specific binding of the secondary antibody shown with an immunoblot probed only with secondary antibody.

Experiment [4] has as its target T4, human 0N4R tau with the P301L mutation (expressed in JNPL3 tau transgenic mice) (human, UniProt P10636 1-758).
T4 construct: Tested as inclusions in spinal cord sections of JNPL3 mice; also called tau inclusions of JNPL3 mice
In words: immunohistochemistry of spinal cord sections. As for the experimental part: Paraffin embedded tissues from JNPL3 tau transgenic, PS19 tau-transgenic and non-transgenic (NTg) mice were used. All paraffin embedded, formalin fixed human brain tissues from de-identified donors were obtained through a human brain tissue bank. Sequential tissue sections were deparaffinized with xylenes and sequentially rehydrated with graded ethanol solutions (100-70%). Antigen retrieval was performed by incubating sections in a steam bath for 30 minutes. Endogenous peroxidase activity was quenched with 1.5% hydrogen peroxide/0.005% Triton-X-100/Tris-buffered Saline (TBS) for 20 minutes. Sections were blocked with 2.5% horse serum then incubated overnight at 4° C. with primary antibody. Following washing with TBS, sections were incubated with Vector ImmPress anti-mouse IgG peroxidase (Vector Laboratories, Burlingame, Calif., USA) for 30 minutes. Sections were washed with TBS and then developed with 3, 3′diaminobenzidine (DAB kit; Vector Laboratories). Reactions were stopped by immersing the slides in TBS and sections were counterstained with Mayer's hematoxylin (Sigma Aldrich, St. Louis, Mo.). Next, sections were dehydrated with an ascending series of ethanol solutions (70%-100%) followed by xylenes and coverslipped using cytoseal (Thermo Scientific, Waltham, Mass.).
Each of the 83E4, 94-3A2-2, 94-3A6 and 94-4F1 binds R4 and can recognize 3- and 4-repeat tau. […]

Experiment [5] deals with T5, recombinant glutathione S-transferase (GST) tagged human tau MTBD R4 (human).
T5 construct: Expressed in E. coli; total bacterial lysates were blotted after SDS-PAGE; also called GST/R4; not shown: glutathione S-transferase (GST) tag encoded by bacterial expression plasmid pGEX-2T; junction
T5 chain: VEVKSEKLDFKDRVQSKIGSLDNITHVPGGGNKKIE
Briefly: summary of immunoblots of GST-tagged MTBD fragments. The text has this: For the generation of recombinant glutathione S-transferases (GST) tagged human MTBD R1-3 (residues 244-336 relative to ON/4R tau), R1 (residues 244-274 relative to ON/4R tau), R3 (residues 306-336 relative to ON/4R tau) and R4 (residues 337-372 relative to ON/4R tau) proteins, the corresponding cDNA sequences were amplified by PCR with the respective oligonucleotides with added BamHI and EcoRI restriction sites and cloned in these sites of bacterial expression plasmid pGEX-2T. These proteins were expressed in E. coli BL21 (DE3)/RIL with isopropyl β-D-1-thiogalactopyranoside induction. The bacteria were lysed with 2% SDS and following the addition of SDS sample buffer equal amounts of total bacterial lysates were resolved by SDS-PAGE and analyzed by immunoblotting.
Mice were immunized with the synthetic peptides corresponding to the MTBD in 4R human tau 244-372 (K18) conjugated to 21-140 αS at the N-terminus or 21-140 αS at the N-terminus and Aβ1-42 at the C-terminus. […] This selectivity for tau was also confirmed by detection of tau pathology by immunohistochemistry of human AD post-mortem brain tissue with abundant tau pathology. […] The specificity of these monoclonal antibodies was further determined by probing immunoblots of recombinant full-length human 2N/3R and 2N/4R tau and K18 (4R) tau fragment (FIG. 2). […]

In another experiment the target is Aβ (UniProt P05067 672-713). Briefly: ELISA screening of hybridoma media on coated peptide. The procedure:
(§1) All hybridoma clones were screened for reactivity to K18 by enzyme-linked immunosorbent assay (ELISA). MaxiSorp plates (Thermo Scientific, Waltham, Mass.) or Immulon 4HBX plates (ThermoFisher Scientific, Waltham, Mass.) were coated with 1 μg/ml human recombinant tau or αS proteins or Aβ in PBS or 100 mM sodium bicarbonate and blocked with 5% FBS/PBS or 1% Block ACE in PBS. Media from the hybridomas were applied to plates, which were then incubated at room temperature for 3 hours. Next, the plates were washed with PBS and incubated with goat anti-mouse secondary antibody conjugated to horse radish peroxidase (HRP; Jackson Immuno Research Labs, West Grove, Pa.) for 1 hour at room temperature. Then, plates were washed and TMB substrates (Pierce, Rockford, Ill.) were applied until color changes were observed. Reactions were then quenched with 1M HCl or 85% 0-Phosphoric acid and absorbance was measured at 450 nm. Clones that were positive by ELISA were transferred to larger culture plates as needed. […]
(§2) Mice were immunized with the synthetic peptides corresponding to the MTBD in 4R human tau 244-372 (K18) conjugated to 21-140 αS at the N-terminus or 21-140 αS at the N-terminus and Aβ1-42 at the C-terminus. […] The specificity of these monoclonal antibodies was further determined by probing immunoblots of recombinant full-length human 2N/3R and 2N/4R tau and K18 (4R) tau fragment (FIG. 2). […]
On the technique in general: An ELISA detects its analyte on a solid surface through an enzyme-linked reagent.

In experiment [6] the target is recombinant human α-synuclein (human, UniProt P37840 1-140). In words: ELISA screening of hybridoma media on coated protein. The procedure: as §1, §2

T3 sequence (P10636 other isoform, or with tags, fused parts or gaps P301S P301S limits assumed): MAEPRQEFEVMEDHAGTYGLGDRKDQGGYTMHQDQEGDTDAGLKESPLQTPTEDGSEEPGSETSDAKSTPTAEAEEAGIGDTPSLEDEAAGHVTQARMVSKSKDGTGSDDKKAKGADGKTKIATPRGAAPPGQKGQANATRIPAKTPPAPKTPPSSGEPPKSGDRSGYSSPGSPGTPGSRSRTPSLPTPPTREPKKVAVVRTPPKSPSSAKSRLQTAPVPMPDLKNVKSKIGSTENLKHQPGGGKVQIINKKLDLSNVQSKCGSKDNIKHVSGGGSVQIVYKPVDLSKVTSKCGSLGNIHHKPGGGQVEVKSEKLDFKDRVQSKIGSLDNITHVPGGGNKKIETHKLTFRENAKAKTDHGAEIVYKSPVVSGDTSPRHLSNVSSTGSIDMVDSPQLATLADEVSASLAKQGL
T1 sequence (P10636 other isoform, or with tags, fused parts or gaps limits assumed): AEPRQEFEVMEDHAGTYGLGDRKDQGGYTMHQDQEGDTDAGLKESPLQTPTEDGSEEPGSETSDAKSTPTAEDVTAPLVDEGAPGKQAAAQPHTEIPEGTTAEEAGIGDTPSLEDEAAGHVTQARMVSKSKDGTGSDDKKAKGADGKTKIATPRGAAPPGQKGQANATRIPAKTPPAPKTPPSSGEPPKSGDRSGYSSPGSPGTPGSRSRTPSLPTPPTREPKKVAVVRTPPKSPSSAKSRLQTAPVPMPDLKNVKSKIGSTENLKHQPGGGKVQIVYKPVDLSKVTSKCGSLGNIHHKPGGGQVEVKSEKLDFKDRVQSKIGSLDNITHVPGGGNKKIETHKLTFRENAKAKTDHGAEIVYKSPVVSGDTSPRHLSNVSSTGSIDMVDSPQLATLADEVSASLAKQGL
T4 sequence (P10636 other isoform, or with tags, fused parts or gaps P301L P301L limits assumed): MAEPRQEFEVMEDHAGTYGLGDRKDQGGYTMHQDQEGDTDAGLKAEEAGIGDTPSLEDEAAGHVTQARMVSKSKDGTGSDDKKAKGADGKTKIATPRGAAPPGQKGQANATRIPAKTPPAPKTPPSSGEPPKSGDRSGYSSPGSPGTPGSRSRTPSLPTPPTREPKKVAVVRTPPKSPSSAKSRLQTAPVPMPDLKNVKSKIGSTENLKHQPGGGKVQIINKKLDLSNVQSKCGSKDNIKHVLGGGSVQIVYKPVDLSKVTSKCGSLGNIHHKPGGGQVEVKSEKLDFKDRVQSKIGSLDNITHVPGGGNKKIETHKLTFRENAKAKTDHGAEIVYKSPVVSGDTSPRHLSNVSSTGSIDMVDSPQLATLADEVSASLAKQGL
T2 sequence (P10636 other isoform, or with tags, fused parts or gaps limits assumed): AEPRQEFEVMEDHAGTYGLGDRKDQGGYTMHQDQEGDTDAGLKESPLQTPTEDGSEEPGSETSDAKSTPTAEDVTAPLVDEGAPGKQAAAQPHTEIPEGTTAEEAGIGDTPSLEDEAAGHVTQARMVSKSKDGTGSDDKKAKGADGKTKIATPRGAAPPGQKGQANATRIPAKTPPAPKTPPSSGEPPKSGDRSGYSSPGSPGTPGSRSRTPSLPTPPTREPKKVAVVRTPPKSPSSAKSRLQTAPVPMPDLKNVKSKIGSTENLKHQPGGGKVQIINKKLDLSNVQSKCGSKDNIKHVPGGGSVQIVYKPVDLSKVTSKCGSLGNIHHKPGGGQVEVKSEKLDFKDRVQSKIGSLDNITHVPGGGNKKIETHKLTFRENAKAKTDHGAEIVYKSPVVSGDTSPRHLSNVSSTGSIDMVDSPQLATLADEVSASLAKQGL
Sequence of Aβ (P05067 672-713): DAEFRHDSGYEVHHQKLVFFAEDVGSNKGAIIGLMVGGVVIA

B1: monoclonal antibody 94-3A2-2 (antibody, V domains shown)
VH: QVQLQQSGAELAKPGASVKMSCKASGYTFTTYWMHWIKQRPGQGLEWIGYINPSNDYTEYNQKFKDEATLTVDKSSSTAYMQLNSLISEDSAVYYCAHPAYWGQGTLVTVSS
VL: ENVLTQSPAIMSASPGEKVTMTCSASSSVNYMHWYQQKSGTSPKLWIYDTSKLASGVPGRFSGSGSGNSYSLTISSMEAEDVATYYCFQGSGYPFTFGSGTKLEIKR
As to B1, the binding result is listed as “binds” in experiment [1]; “binds” in experiment [2]; “binds” in experiment [3]; “binds” in experiment [4]; “binds” in experiment [5]; “no binding” with Aβ. Moreover, the binding result in experiment [6] is recorded as “no binding”.

B2: monoclonal antibody 94-3A6 (antibody, V domains shown)
VH: QVQLQQPGTELVKPGASVKLSCKASGYPFTNYWMHWVKQRPGQGLEWIGNINPTNGDTNYNEKFKSKATLTVDKSSSTAYMQLSSLTSEDSAVYYCTRVTYWGQGTTLTVSS
VL: B1 VL with S28N, Y35F, K38E, G40S, F95Y, S99G
As to B2, the binding result in experiment [1] is recorded as “binds”; in experiment [2], “binds”; in experiment [3], “binds”; in experiment [4], “binds”; in experiment [5], “binds”; with Aβ it was “no binding”. The binding result in experiment [6] was “no binding”.
